Read-outs that look alike come from different tables or passages of the source.
Assays:
[1] = test system: MEK6; assay: immune complex kinase assay with GST-p38 substrate, HeLa cells transfected with epitope-tagged MEK6; type: cell-based, human; details: for stimulation of MEK6 (summary of Example 4): summary statement for transfected HeLa and COS cells
Method: Next, we examined whether MEK6 can activate p38 in vivo. An expression vector encoding epitope-tagged MEK6 (3xHA-MEK6-SRα3) was constructed by replacing serine in position 2 of MEK6 with alanine, adding sequence encoding three copies of a 10 amino acid hemagglutinin (HA) epitope to the N-terminus of MEK6 and ligating the resulting cDNA into SRα3. HeLa cells, cultured in Dulbecco's modified Eagle medium supplemented with 10% fetal calf serum, 500 mg/l L-glutamine, and antibiotics, were transiently transfected with 3xHA-MEK6 using calcium phosphate-mediated DNA precipitation (Graham and van der Eb, Virology 52:456-467 (1973)). Twenty-four hours later cells were stimulated with anisomycin (50 ng/mL) or UV (254 nm; 120 J/m^2) for 0-120 minutes. Cell lysates were prepared by solubilization in lysis buffer as described (Derijard et al., Cell 76:1025-1037 (1994)), and protein concentration of lysates was determined by Bradford assay (Bradford, Ann. Biochem. 72:248-254(1976)).
In an initial experiment we investigated the time course of MEK6 activation by anisomycin and UV treatment of transfected cells. Cell lysates were used in an immune complex kinase assay with GST-p38 substrate, performed as described above except that 30 μg cell lysate was immunoprecipitated for 2 hours with the anti-HA antibody 12CA5 (Boehringer-Mannheim Corp., Indianapolis, Ind.) and then incubated with 1 μg of recombinant substrate. Reactions were separated by SDS-PAGE and quantitated with a phosphorimager and ImageQuant software. The relative level of MEK6 activity in untreated cells was arbitrarily assigned 1.
To investigate the pattern of regulation of MEK6, cells were transiently transfected with 3xHA-MEK6 (as described in Example 3) and treated with various stimulators of the MAPK pathway.
MEKK has been described as a MAPKKK leading to the phosphorylation and activation of JNKK (Lin et al., Science 268:286-290 (1995); Minden et al., Science 266:1719-1722 (1994); Yan et al., Nature 372:798-800 (1994)). In an initial experiment, HeLa (FIG. 7A) or COS (FIG. 7B) cells were transiently transfected with epitope-tagged MEK6 (lanes 1 to 12) or the empty expression vector SRα3 (lanes 13 to 16) and treated for 45 min with IL-1β (10 ng/ml), TNF-α (10 ng/ml), EGF (50 ng/ml), NGF (50 ng/ml), PMA (50 ng/ml), Anisomycin (50 ng/ml), Cycloheximide (CX, 50 ng/ml), Arsenite (200 μM), NaCl (200 μM), UV (254 nm; 120 J/m^2) or cotransfected with 1000 ng CMV5-MEKK as indicated. Cell lysates were used in an immune complex kinase assay with GST-p38 substrate as described in Example 3. MEK6 activity was quantitated with a phosphorimager and ImageQuant software.

[2] = test system: MEK6 / p38 / ATF2; assay: coupled immune complex kinase assay, MEK6 from anisomycin-treated HeLa cells, recombinant p38 and ATF2; type: cell-based, human; details: anisomycin 45 minutes, 50 ng/mL, FIG. 6
Method: To determine whether the increase in p38 phosphorylation by activated MEK6 augments p38 kinase activity a coupled immune complex kinase assay was performed. Epitope-tagged MEK6 was isolated from anisomycin-treated HeLa cells (45 minutes; 50 ng/mL) and subjected to two subsequent kinase reactions as described above using recombinant p38, ATF2 and GST alone. […] Similar results have been found with MEK6 activated by UV treatment of cells (data not shown). […] This phosphorylation event was slightly augmented by anisomycin in the presence of MEK6 (FIG. 6, compare lanes 3 and 4 with lanes 11 and 12). This protein was not observed in in vitro kinase assays, and therefore is most likely a contamination of the immunoprecipitation.

[3] = target: T1, GST-JNK2 (Homo sapiens, UniProt P45984); assay: in vitro kinase assay with bacterially expressed MAPK substrate; type: biochemical; details: 0.5 μg recombinant kinase, 1 μg substrate, 50 nM [γ-32P]ATP
T1 construct: ligating the respective cDNA fragments encoding amino acid 1 through the stop codon into pGEX-KG; made in house; host or cells: bacteria (pGEX-KG)
Method: (§1) A MEK6 kinase assay may be performed substantially as described in Derijard et al., Cell 76:1025-1037 (1994) and Lin et al., Science 268:286-290 (1995), with minor modifications. Briefly, a polypeptide variant of MEK6 may be incubated with p38 and [γ-^32P]ATP in a suitable buffer (such as 20 mM HEPES (pH 7.6), 5 mM MnCl2, 10 mM MgCl2, 1 mM dithiothreitol) for 30 minutes at 30° C. In general, approximately 0.5 μg of the variant and 1 μg recombinant p38, with 50 nM [γ-^32P]ATP, is sufficient. Proteins may then be separated by SDS-PAGE on 10% gels and subjected to autoradiography. Incorporation of [^32P]phosphate into p38 may be quantitated using techniques well known to those of ordinary skill in the art, such as with a phosphorimager. To evaluate the substrate specificity of polypeptide variants, a kinase assay may generally be performed as described above except that other MAPK substrates (i.e., JNK2 and/or ERK) are substituted for the p38.
(§2) cDNAs encoding MEK6 and MKK3 were subcloned into a bacterial GST-fusion protein expression vector. GST-MEK6 was constructed by ligating a 1.3 kb DNA fragment encoding amino acid 1 through the stop codon of MEK6 with a serine to alanine substitution of amino acid 2 into pGEX-KG (Guan and Dixon, Ann. Biochem. 192:262-267 (1991)). Similarly, GST-MKK3, GST-p38 and GST-JNK2 were constructed by ligating the respective cDNA fragments encoding amino acid 1 through the stop codon into pGEX-KG. Human p38 cDNA (Genbank accession number U10871) was cloned by PCR amplification of a Jurkat cDNA library with primers against the 5′ end (5′-[…]-3′) (SEQ ID NO:5) and 3′ end (5′-[…]-3′) (SEQ ID NO:6) of the published human p38 sequence. Each strand of the PCR fragment was sequenced several times with an ABI 373 Automated Sequencer. His-ERK1[K52R] was prepared as described previously (Robbins et al., J. Biol. Chem. 268:5097-5106 (1993)).
(§3) We investigated the substrate specificity of MEK6 in an in vitro kinase assay with bacterially expressed MAPK substrates (GST-JNK2, GST-p38 and His-ERK1[K52R]). The assays were performed as previously described (Derijard et al., Cell 76:1025-1037 (1994); Lin et al., Science 268:286-290 (1995)) with minor modifications. 0.5 μg recombinant kinase and 1 μg recombinant substrate were used, and the concentration of [γ-^32P]ATP was 50 nM. Phosphorylated proteins were separated by SDS-PAGE on 10% gels and then subjected to autoradiography. Incorporation of [^32P]phosphate was quantitated with a phosphorimager and ImageQuant software (Molecular Dynamics, Inc., Sunnyvale, Calif.).

[4] = target: T2, GST-p38 (Homo sapiens, UniProt P52564, S2A); assay: as above; type: biochemical; details: in vitro kinase assay, compared to MKK3
T2 construct: ligating the respective cDNA fragments encoding amino acid 1 through the stop codon into pGEX-KG; made in house; host or cells: bacteria (pGEX-KG)
T2 sequence (P52564 1-334 S2A): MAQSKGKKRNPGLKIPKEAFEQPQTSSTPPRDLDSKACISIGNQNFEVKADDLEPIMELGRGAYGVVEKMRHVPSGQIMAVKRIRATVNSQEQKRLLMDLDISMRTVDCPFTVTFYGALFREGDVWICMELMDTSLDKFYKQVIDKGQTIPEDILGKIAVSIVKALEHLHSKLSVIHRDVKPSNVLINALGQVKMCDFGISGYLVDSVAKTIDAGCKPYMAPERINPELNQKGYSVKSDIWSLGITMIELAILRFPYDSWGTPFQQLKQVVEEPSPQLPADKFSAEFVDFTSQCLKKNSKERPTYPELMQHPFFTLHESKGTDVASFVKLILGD
Method: as §1, §2, §3

[5] = target: T3, GST-p38 (Homo sapiens, UniProt Q16539, S2A); assay: as above; type: biochemical; details: 0.5 μg recombinant kinase, 1 μg substrate, 50 nM [γ-32P]ATP
T3 construct: ligating the respective cDNA fragments encoding amino acid 1 through the stop codon into pGEX-KG; made in house; host or cells: bacteria (pGEX-KG)
Method: as §1, §2, §3

[6] = test system: His-ERK1[K52R]; assay: as above; type: biochemical; details: 0.5 μg recombinant kinase, 1 μg substrate, 50 nM [γ-32P]ATP
Method: as §1, §2, §3

[7] = test system: GST-p38 / GST-ATF2; assay: coupled in vitro kinase assay (p38, GST-ATF2); type: biochemical, human
Method: To determine whether p38 phosphorylation results in activation, a coupled in vitro kinase assay may be performed using a substrate for p38, such as ATF2, with or without an epitope tag. ATF2 for use in such an assay may be prepared as described in Gupta et al., Science 257:389-393 (1995). Briefly, following phosphorylation of p38 as described above, isolation of the protein by binding to GSH-sepharose and washing with 20 mM HEPES (pH 7.6), 20 mM MgCl2, the p38 (0.1-10 μg) may be incubated with ATF2 (0.1-10 μg) and [γ-^32P]ATP (10-500 nM) in a buffer containing 20 mM HEPES (pH 7.6), 20 mM MgCl2. It should be noted that alternative buffer may be used and that buffer composition can vary without significant effects on kinase activity. Reactions may be separated by SDS-PAGE, visualized by autoradiography and quantitated using any of a variety of known techniques. Activated p38 will be capable of phosphorylating ATF2 at a level of at least 5% above background using this assay.
To determine whether phosphorylation of p38 is an activating event we analyzed the phosphorylation of recombinant ATF2 (a substrate for p38) in a coupled in vitro kinase assay. […] Reactions were separated by SDS-PAGE and visualized by autoradiography.

[8] = test system: GST-JNK2 / GST-cJun(1-79); assay: coupled in vitro kinase assay (JNK2, GST-cJun(1-79)); type: biochemical; details: FIG. 3B lanes 1 to 3
[9] = HeLa cells, 45 min, anisomycin 50 ng/ml, NaCl 200 μM, IL-1β 10 ng/ml, EGF 50 ng/ml, NGF 50 ng/ml, CMV5-MEKK 1000 ng cotransfected, FIG. 7A
[10] = HeLa cells, anisomycin 50 ng/mL, FIG. 4

T3 sequence (Q16539 whole entry S2A, the tested form may be a part): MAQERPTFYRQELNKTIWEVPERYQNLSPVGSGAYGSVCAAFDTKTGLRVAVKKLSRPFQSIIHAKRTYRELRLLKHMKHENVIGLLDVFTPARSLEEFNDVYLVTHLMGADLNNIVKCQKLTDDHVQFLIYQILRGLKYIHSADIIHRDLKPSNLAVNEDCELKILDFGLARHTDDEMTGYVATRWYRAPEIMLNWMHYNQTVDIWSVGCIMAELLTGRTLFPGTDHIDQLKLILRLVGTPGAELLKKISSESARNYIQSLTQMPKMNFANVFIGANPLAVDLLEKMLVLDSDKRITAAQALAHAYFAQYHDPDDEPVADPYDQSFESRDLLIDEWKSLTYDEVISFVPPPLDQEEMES

Molecule: C[C@@H]1C[C@@H]([C@H](O)CC2CC(=O)NC(=O)C2)C(=O)[C@@H](C)C1 [cycloheximide]
- stimulation of MEK6 (summary of Example 4) [1]: did not significantly activate MEK6

Molecule: IL-1β: cytokine stimulator
- induction of MEK6 kinase activity [1, 9]: weak induction

Molecule: COc1ccc(C[C@H]2NC[C@H](O)[C@H]2OC(C)=O)cc1 [anisomycin]
- induction of MEK6 kinase activity [1, 9]: strongest inducers
- time at which MEK6 activation was first observed after treatment [1, 10]: 10 min
- time of peak MEK6 activation after treatment [1, 10]: 40 min
- stimulation of MEK6 (summary of Example 4) [1]: strongly activated
- phosphorylation of ATF2 after anisomycin treatment [2]: increased phosphorylation of ATF2 only when MEK6 and p38 were present

Molecule: [Cl-].[Na+] [NaCl]
- induction of MEK6 kinase activity [1]: strongest inducers

Molecule: NGF: strong inducer of the ERK pathway
- induction of MEK6 kinase activity [1, 9]: did not activate MEK6
- stimulation of MEK6 (summary of Example 4) [1]: did not stimulate MEK6

Molecule: EGF: strong inducer of the ERK pathway
- induction of MEK6 kinase activity [1, 9]: did not activate MEK6
- stimulation of MEK6 (summary of Example 4) [1]: did not stimulate MEK6

B1: MEK6: human mitogen-activated protein kinase kinase, SEQ ID NO:2, 334 amino acids; used as GST fusion or HA epitope-tagged (protein)
chain: SQSKGKKRNPGLKIPKEAFEQPQTSSTPPRDLDSKACISIGNQNFEVKADDLEPIMELGRGAYGVVEKMRHVPSGQIMAVKRIRATVNSQEQKRLLMDLDISMRTVDCPFTVTFYGALFREGDVWICMELMDTSLDKFYKQVIDKGQTIPEDILGKIAVSIVKALEHLHSKLSVIHRDVKPSNVLINALGQVKMCDFGISGYLVDSVAKTIDAGCKPYMAPERINPELNQKGYSVKSDIWSLGITMIELAILRFPYDSWGTPFQQLKQVVEEPSPQLPADKFSAEFVDFTSQCLKKNSKERPTYPELMQHPFFTLHESKGTDVASFVKLILGD
modifications: GST fusion or HA tag; homo sapien
- phosphorylation of JNK2 by MEK6 [3]: none of the other substrates
- autophosphorylation of MEK6 [4]: very low compared to MKK3
- phosphorylation of p38 by MEK6 [5]: efficiently phosphorylated p38
- phosphorylation of ERK1[K52R] by MEK6 [6]: none of the other substrates
- phosphorylation of ATF2 by p38 activated by MEK6 ([7]; FIG. 3B lane 5): strongly phosphorylated
- direct phosphorylation of ATF2 by MEK6 ([7]; without p38): not directly phosphorylated
- phosphorylation of Jun, directly or in combination with JNK2 [8]: did not cause increased phosphorylation of Jun
